Paper PMC12663545

How the values were obtained:
[1] = target: Chloroflexus aurantiacus succinate dehydrogenase (CaSDH) monomer of SdhA, SdhB and SdhC (Chloroflexus aurantiacus J-10-fl (endogenous)); experiment: native gel or EMSA
[2] = target: Chloroflexus aurantiacus succinate dehydrogenase (CaSDH) monomer of SdhA, SdhB and SdhC (Chloroflexus aurantiacus J-10-fl (endogenous)); experiment: cryo-EM structure

Chloroflexus aurantiacus succinate dehydrogenase (CaSDH) monomer of SdhA, SdhB and SdhC (complex)
stoichiometry N [1]: 3
stoichiometry N [2]: 3
